Where “and” joins values, the source holds several entries; their conditions need not be identical. Identical values can stand only once.
B2: Sso1431 (untagged, in the complex purified by tagged Sso1428) (natural protein, UniProt Q97YA1 1-304, looked up)
chain: MILIKLKVKGYITTQMRRIRNYYFSITNYIPSTTLRGAILAEYYNQTGKIDENFYVSPAYPIKTAPAHYFSPAKERKGDEFIEVKRILEKKEKEFEANKPIEEIMKLEIDGKHPKPKIGSLITYEGETDKENKYREFSSKSIIQMHVAIDKTSISSYKGMLFAYEYKEFDEMWAIASDSEVIDTVKRIKIGRGKNRGNKVVDVEKVREVSLDQSKGLLYCLSPCIGSLFGKTFFKAKYIIGDKSIYSGWFTVDSFSGQKPVFETLREGSLVYVESFSNEKSLMPAGLNFMLRISDLSSILNKVS
modifications: methylation; phosphorylation (residues not given)
notes: Csm4 (Sso1431, Cas5 subfamily RAMP protein) of the CSM complex of S. solfataricus; also called Csm4; Cas5-like RAMP subunit; source: endogenous, S. solfataricus PH1-16; co-purified with tagged Sso1428 (HisTrap, monoQ, gel filtration)
B3: Sso1430 (natural protein, UniProt Q97YA2 1-206, looked up)
chain: MIPIKVSMRNLSSLTIAGGSTISSIDIPLNPLGVPPSTIKGTMRTAVHNLLPNGYTSCGEVEPESIREAHKNGVCDVCKLFGYPDSLTGCFTIDVSKTDYRTSYITRVSIDDKTQRAKEGSLFTQQIILPNSDISFTVYYNCNDERLFKLLLYSILDLRYWRLGRNTMIDVKVNNVEEICKSVKCDEEINGILNQLSRYLWEAENK
modifications: methylation (residues not given)
notes: Sso1430, subunit of the CSM complex of S. solfataricus; also called RAMP subunit; Csm3 paralog; source: endogenous, S. solfataricus PH1-16; co-purified with the tagged subunit (HisTrap, monoQ, gel filtration)
B7: Sso1427 (natural protein, UniProt Q97YA5 1-275, looked up)
chain: MQRSPIRRSNYTPRNEKGLEGVIELQLNVVSDYLHVGSGKYDVEVMRSVSDVKRLVEDYLSGGNKRIPNNVDQYFSMVAFLMVRNKDNVVIPGSTIKGMVRSRLELSVPGSCYIVTGHSTSSSAVYKRIFNPDPNRGSDRFDVNKFPQVCPVCDLLGNMGLASRVSLSDFVMTSGKVDYVNVKGRDYEVVTKGSIFAGKVLYKSLKPVEIGMLLYGFGFVKDCNGSKVMLLGRFKFSDKRFGRVKFSLKTPIADCNKLVSDFVKQFNPRYINEEW
modifications: methylation (residues not given)
notes: Sso1427, RAMP subunit of the CSM complex of S. solfataricus; its mass lies within 70 Da of that of Sso1426; also called RAMP subunit; Csm3 paralog; source: endogenous, S. solfataricus PH1-16; co-purified with the tagged subunit (HisTrap, monoQ, gel filtration)

Columns and labels:
[1] = target: T1, Sso1428 with C-terminal tandem tag (Strep and 10x His) (S. solfataricus, UniProt Q97YA4 1-558, methylation (residues not given)); assay: native MS + other: quantitative proteomics with isotope-labelled peptides; exhaustive mass search on the intact mass 427,611 Da; copy numbers of Sso1424, Sso1425 and Sso1426 allowed to vary by one, the others fixed by Table 1; one hit within a mass error of 3%; details: both partners purified
T1 chain: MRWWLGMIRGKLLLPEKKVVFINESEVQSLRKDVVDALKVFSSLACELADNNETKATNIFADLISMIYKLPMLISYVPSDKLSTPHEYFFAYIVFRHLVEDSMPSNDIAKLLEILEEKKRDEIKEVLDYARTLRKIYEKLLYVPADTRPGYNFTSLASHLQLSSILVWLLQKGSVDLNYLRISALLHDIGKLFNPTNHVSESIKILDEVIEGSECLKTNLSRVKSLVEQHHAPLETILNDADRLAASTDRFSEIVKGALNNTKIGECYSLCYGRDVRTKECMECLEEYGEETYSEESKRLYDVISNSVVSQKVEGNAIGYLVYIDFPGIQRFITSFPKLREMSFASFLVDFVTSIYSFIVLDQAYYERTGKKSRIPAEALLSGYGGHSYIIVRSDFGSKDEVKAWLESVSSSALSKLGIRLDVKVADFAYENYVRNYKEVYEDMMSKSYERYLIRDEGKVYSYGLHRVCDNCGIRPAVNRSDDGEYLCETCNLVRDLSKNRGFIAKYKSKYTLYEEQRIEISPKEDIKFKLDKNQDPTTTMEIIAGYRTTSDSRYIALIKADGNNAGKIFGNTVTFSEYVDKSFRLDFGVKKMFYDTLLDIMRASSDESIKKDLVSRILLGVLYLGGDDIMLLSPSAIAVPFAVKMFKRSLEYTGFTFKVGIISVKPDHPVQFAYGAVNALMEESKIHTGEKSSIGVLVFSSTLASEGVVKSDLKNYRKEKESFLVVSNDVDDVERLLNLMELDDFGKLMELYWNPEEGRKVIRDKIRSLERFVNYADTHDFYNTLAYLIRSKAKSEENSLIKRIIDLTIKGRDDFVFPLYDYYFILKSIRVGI

[2] = target: T1, Sso1428 with C-terminal tandem tag …; assay: quantitative proteomics with isotope-labelled dipeptides (LC-MS); purified CSM complex spiked with synthetic (15N,13C)-labelled dipeptides joining a peptide of each subunit to the reference peptide of Sso1428, trypsin digest, LTQ-Orbitrap; ratio of peak areas; details: both partners purified
Sso1427 = target: B7; assay: cross-linking; purified CSM complex (1 ug/ul) with a 1:1 mixture of d4 and d0 BS3, 1 hr at room temperature; cross-linked peptides found by MS (MassMatrix) and validated by hand; details: both partners purified
Sso1430 = target: B3; assay: native MS; purified CSM complex disassembled in 200 mM ammonium acetate with 5%-20% acetic acid (pH 3.9, 3.5, 3.2); subcomplexes of 357 to 120 kDa assigned by tandem MS; interaction map deduced from the disassembly pattern with the help of the EM shape; details: both partners purified
[3] = target: the molecule itself; assay: native MS + other: quantitative proteomics with isotope-labelled peptides; exhaustive mass search on the intact mass 427,611 Da; copy numbers of Sso1424, Sso1425 and Sso1426 allowed to vary by one, the others fixed by Table 1; one hit within a mass error of 3%
[4] = target: B2; assay: native MS; purified CSM complex disassembled in 200 mM ammonium acetate with 5%-20% acetic acid (pH 3.9, 3.5, 3.2); subcomplexes of 357 to 120 kDa assigned by tandem MS; interaction map deduced from the disassembly pattern with the help of the EM shape; details: both partners purified

B1: Sso1432 (natural protein, UniProt Q97YA0 1-252, looked up)
chain: MVIQVFRLNFRLRTGFRVGGGQEVGDNVIRQLRIGVEGVMIPASSWKGMFRRVSEIVLNSEDHFEEHSKKEVDTRTINALLKSDEKFRRIAISKVGKEVITQNGINVDKLDSESLSDLRRIYNEYNCPIERLYGSNYFAGGITISDSVIPNASIMERTHVTIERKSKKASEKHLFSEEIIDAEKIEVKVIVRNEFELWKNSLKLLREIGYFIGGSKSRGIGYIVLDEKESEYAVINNFSETPKFSELKRYLS
modifications: methylation (residues not given)
notes: Sso1432, RAMP subunit of the CSM complex of S. solfataricus; also called RAMP subunit; Csm3 paralog; source: endogenous, S. solfataricus PH1-16; co-purified with the tagged subunit (HisTrap, monoQ, gel filtration)
**Q.** B1 was tested. Which “stoichiometry N” value [1] did it give?
**A.** Its value is 1 subunit:Sso1428.

**Q.** What about the “stoichiometry N” value [2] of the same binder?
**A.** Its value is 0.92 subunit:Sso1428 and 0.91 subunit:Sso1428 and 0.96 subunit:Sso1428 and 0.93 subunit:Sso1428.

**Q.** Which “stoichiometry N” value [1] does the source give for B2 here?
**A.** The value was 1 subunit:Sso1428.

**Q.** What about the “stoichiometry N” value [2] of the same binder?
**A.** Its value is 0.67 subunit:Sso1428 and 0.65 subunit:Sso1428 and 0.7 subunit:Sso1428.

**Q.** For B3, which “stoichiometry N” value [1] is on record?
**A.** Its value is 1 subunit:Sso1428.

B4: Sso1424 (natural protein, UniProt Q97YA8 16-139, looked up)
chain: SSQDLLDIATRIAISAIKPKPKSNKPEPYVDSSTINSLLSFLQSRRNVNELLLYIMRQAGRDEIDEETGKLLLASLKDRELKDAVNLLGYVKWVYDTLTGLKVNYNNVKGVKTFKELVNILSKV
modifications: acetylated N-terminal Ser-16; seven methylated lysines (positions not given)
notes: Sso1424, small subunit (probably Csm2) of the CSM complex of S. solfataricus; three copies in the CSM complex; also called small subunit; Csm2; source: endogenous, S. solfataricus PH1-16; co-purified with the tagged subunit (HisTrap, monoQ, gel filtration)
**Q.** Does B4 bind (Sso1427)?
**A.** Result: binds

**Q.** Does B4 bind (Sso1430)?
**A.** Result: binds

**Q.** And the “stoichiometry N” value [1]?
**A.** Its value is 3 subunit:Sso1428.

**Q.** And the “stoichiometry N” value [3]?
**A.** Its value is 3 copies.

**Q.** And the “stoichiometry N” value [2]?
**A.** Its value is 3.62 subunit:Sso1428 and 3.51 subunit:Sso1428 and 4.03 subunit:Sso1428 and 3.72 subunit:Sso1428.

B5: Sso1425 (natural protein, UniProt Q97YA7 1-250, looked up)
chain: MKMSCMDLDVITTVVKIEGKLRNETLLRVGKGKTQDFAEATDNPIIKYRDRPLIPGSSLKGAFRSLVESYTKSLNDSKYYVCDLDDNSCVSCEEKKKDNGIVEGRYCIPCILFGFKDLASRVYILDAIAEKYSISQRTMVAINRVFGGQMPGHLYTLDYVDPGSEFSFMMMIYNLNLIEGEKDWKAKSVEALKFLLATLVREGIFVGARKSVGYGLIKLVDAKVSLYKAPDHLVSPVIVKKLEEVIGTNG
modifications: methylation; phosphorylation (residues not given)
notes: Sso1425, RAMP subunit of the CSM complex of S. solfataricus; also called RAMP subunit; Csm3 paralog; source: endogenous, S. solfataricus PH1-16; co-purified with the tagged subunit (HisTrap, monoQ, gel filtration)
**Q.** What does the source list for B5?
**A.** stoichiometry N [1]: 1 subunit:Sso1428; stoichiometry N [2]: 1.45 subunit:Sso1428 and 1.35 subunit:Sso1428 and 1.56 subunit:Sso1428

B6: Sso1426 (natural protein, UniProt Q97YA6 1-281, looked up)
chain: MVLMVNYTFIDKRVIKRTTMIEGDVETVSPLKIGGGKDNFDPSSLAKDSILKDVEGRPIIPGSSWKGIFRSTGERILRLRNIEVCSGIGKDYCLNNNRKERDFNSALKENVDQALEIFWDYTCLNCKVFGTMSVIGAVRFLDSLPISYSLNTRSMIAISRTEGAVARRALVTVEYVDVGSKFSFKMMGYNLPNYAIGYLITIMKNIHDGFTQVGGHKSRGFGFVKFGKVKFTDLGEKRIGDEDIQVKDVGDLVEGNGDEFFGRMKPFMEAFNNAKIPYPKK
modifications: methylation (residues not given)
notes: Sso1426, RAMP subunit assigned to the Csm3 (Cas7-like) family, CSM complex of S. solfataricus; four copies in the CSM complex; its mass lies within 70 Da of that of Sso1427; also called Csm3; Cas7 family RAMP subunit; source: endogenous, S. solfataricus PH1-16; co-purified with the tagged subunit (HisTrap, monoQ, gel filtration)
**Q.** Which “stoichiometry N” value [1] does the source give for B6 here?
**A.** The value was 4 subunit:Sso1428.

**Q.** What about the “stoichiometry N” value [3] of the same binder?
**A.** Its value is 4 copies.

**Q.** And the “stoichiometry N” value [2]?
**A.** The value was 4.85 subunit:Sso1428 and 4.81 subunit:Sso1428 and 4.73 subunit:Sso1428 and 4.8 subunit:Sso1428.

**Q.** Does B7 bind [4]?
**A.** Result: binds

**Q.** What about the “stoichiometry N” value [1] of the same binder?
**A.** The value was 1 subunit:Sso1428.

**Q.** What about the “stoichiometry N” value [2] of the same binder?
**A.** Its value is 0.8 subunit:Sso1428 and 0.79 subunit:Sso1428 and 0.83 subunit:Sso1428 and 0.81 subunit:Sso1428.

Source: article PMC3807668, “Structure of the CRISPR Interference Complex CSM Reveals Key Similarities with Cascade” (Molecular Cell, 2013)
